From US6753413

Columns and labels:
[1] = molecular target: reconstituted Nclk (GST-p25/GST-Cdk5 complex) [GST: P08515]; test: cell-based or functional assay
GST-C53 (SEQ ID NO 6) = system: T1, GST-C53 (SEQ ID NO 6)
T1 sequence: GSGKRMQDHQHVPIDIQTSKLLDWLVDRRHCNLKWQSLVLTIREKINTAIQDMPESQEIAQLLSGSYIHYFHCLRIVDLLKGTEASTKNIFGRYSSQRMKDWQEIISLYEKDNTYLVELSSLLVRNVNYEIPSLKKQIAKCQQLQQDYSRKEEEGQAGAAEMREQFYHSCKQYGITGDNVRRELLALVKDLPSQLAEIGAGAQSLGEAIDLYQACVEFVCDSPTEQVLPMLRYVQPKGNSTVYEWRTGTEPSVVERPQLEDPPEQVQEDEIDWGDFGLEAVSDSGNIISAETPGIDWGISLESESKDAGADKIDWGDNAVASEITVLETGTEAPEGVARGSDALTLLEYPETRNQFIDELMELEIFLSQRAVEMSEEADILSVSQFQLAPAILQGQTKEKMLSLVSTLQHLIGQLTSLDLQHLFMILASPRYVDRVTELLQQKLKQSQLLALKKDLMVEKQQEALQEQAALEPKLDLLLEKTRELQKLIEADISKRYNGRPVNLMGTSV

GST-C48 (SEQ. ID NO 4) = system: T2, GST-C48 (SEQ. ID NO 4)
T2 sequence: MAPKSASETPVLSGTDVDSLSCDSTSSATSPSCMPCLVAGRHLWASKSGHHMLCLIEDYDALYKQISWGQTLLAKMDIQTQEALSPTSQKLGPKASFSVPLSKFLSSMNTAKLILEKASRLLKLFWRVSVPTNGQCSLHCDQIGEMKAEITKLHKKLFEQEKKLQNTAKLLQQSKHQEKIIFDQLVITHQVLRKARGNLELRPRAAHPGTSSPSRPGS

GST-C53 (SEQ ID NO 6) (from UniProt Q9JLH7 1-504)
inhibition of Cdk5 kinase activity [1]: < 20%

reconstituted Nclk (GST-p25/GST-Cdk5 complex)
phosphorylation by reconstituted Nclk (autoradiograph, Mg[γ-32P]ATP) (GST-C53 (SEQ ID NO 6)): the SEQ ID NO 4 (C48) and SEQ ID NO 6 (C53) proteins, but not the SEQ ID NO 2 (C42) protein, were phosphorylated by Cdk5 kinase | phosphorylation by reconstituted Nclk (autoradiograph, Mg[γ-32P]ATP) (GST-C48 (SEQ. ID NO 4)): the SEQ ID NO 4 (C48) and SEQ ID NO 6 (C53) proteins, but not the SEQ ID NO 2 (C42) protein, were phosphorylated by Cdk5 kinase

GST-C48 (SEQ. ID NO 4) (from UniProt Q9JLH5 1686-1903)
inhibition of Cdk5 kinase activity [1]: < 20%
